B1: His-FeCh, recombinant type II ferrochelatase of Synechocystis sp. PCC 6803 with N-terminal His6-tag (enzyme, UniProt P54225 1-387, looked up)
chain: MGRVGVLLLNLGGPEKLEDVRPFLFNLFADPEIIRLPFPWLQKPLAWLISTLRAKKSQANYAEIGGGSPLLQITEAQASALTTRLERLGQDAKVYIGMRYWHPFTEEAVEKIKGDRLQRLVILPLYPHFSISTSGSSFRVLEEMWHNDPSLRQLDYSLIPSWYDHPGYLQAMADLIAQELKKFPNPDQAHIFFSAHGVPQSYVDEAGDPYQAEIEACTRLIMRTLDRPNQYTLAYQSRVGPVEWLKPYTEEALQKLGAEGIDDLLVVPISFVSEHIETLQEIDIEYREIAEEAGIDNFQRVPALNTHPVFIDALAQMVMDSLNDPPCTFETVPHPKKNMKMYPQERWEWGLTTAAEVWNGRLAMLGFIALLVELISGQGPLHFVGLL
notes: Ferrochelatase (hemH) of Synechocystis sp; PCC 6803, GenBank BAA10523.1, amplified from genomic DNA from the start codon to the stop codon; full length with the C-terminal CAB domain; tagged protein 47 kDa; also called full length His-FeCh; not shown: His6, N-terminal, kept
B2: FeCh, recombinant full-length ferrochelatase of Synechocystis sp. PCC 6803 after removal of the N-terminal His6-tag (enzyme, UniProt P54225 1-387, looked up)
chain: B1 chain
notes: Ferrochelatase (hemH) of Synechocystis sp; PCC 6803, GenBank BAA10523.1, full length with the C-terminal CAB domain; monomer 44 kDa; also called full-length FeCh; source: E. coli, His-FeCh after IMAC, His6-tag removed with thrombin, purified (HisGraviTrap, Sephacryl S-100-HR); not shown: His6, N-terminal, cleaved

Target: the molecule itself
Assay: SEC; native size exclusion chromatography, Sephacryl S-100-HR, buffer B (50 mM Tris pH 8, 0.1 M NaCl, 0.5 M KCl, 20% glycerol, 20 mM Na-cholate, 0.1 mM TCEP) as eluent; monomer separated from higher molecular weight forms

Row | Protein | binding result
1 | B1 | binds
2 | B2 | binds
